In PMC12592476 (2025) one finds Kd data, which are given here for five molecules.

Assay [1] deals with T1, F-actin (rabbit skeletal α-actin, polymerized) (rabbit, UniProt P68135 1-377). Briefly: ADP-BeF3- F-actin.
Assay [2] addresses T1, F-actin (rabbit skeletal α-actin, …). Put plainly: ADP-F-actin.
For assay [3] the target is unchanged. Put plainly: ADP-F-actin (- BeF3-).
The target of assay [4] is T2, bovine brain Arp2/3 complex (bovine, UniProt P61157 1-418; A7MB62 1-394; Q58CQ2 1-372; Q3MHR7 1-300; Q3T035 1-178; Q148J6 …). Briefly: ITC; ATP-bound Arp2/3 complex. For orientation: Isothermal titration calorimetry measures the heat released or taken up as one component is titrated into another.
In assay [5] the target is T2, bovine brain Arp2/3 complex. Put plainly: ITC; ADP-bound Arp2/3 complex.

What is called Kd is the equilibrium constant for the complex coming apart.

B1: human Coro7 full length (Coro7 FL) (natural protein)
chain: MNRFRVSKFRHTEARPPRRESWISDIRAGTAPSCRNHIKSSCSLIAFNSDRPGVLGIVPLQGQGEDKRRVAHLGCHSDLVTDLDFSPFDDFLLATGSADRTVKLWRLPGPGQALPSAPGVVLGPEDLPVEVLQFHPTSDGILVSAAGTTVKVWDAAKQQPLTELAAHGDLVQSAVWSRDGALVGTACKDKQLRIFDPRTKPRASQSTQAHENSRDSRLAWMGTWEHLVSTGFNQMREREVKLWDTRFFSSALASLTLDTSLGCLVPLLDPDSGLLVLAGKGERQLYCYEVVPQQPALSPVTQCVLESVLRGAALVPRQALAVMSCEVLRVLQLSDTAIVPIGYHVPRKAVEFHEDLFPDTAGCVPATDPHSWWAGDNQQVQKVSLNPACRPHPSFTSCLVPPAEPLPDTAQPAVMETPVGDADASEGFSSPPSSLTSPSTPSSLGPSLSSTSGIGTSPSLRSLQSLLGPSSKFRHAQGTVLHRDSHITNLKGLNLTTPGESDGFCANKLRVAVPLLSSGGQVAVLELRKPGRLPDTALPTLQNGAAVTDLAWDPFDPHRLAVAGEDARIRLWRVPAEGLEEVLTTPETVLTGHTEKICSLRFHPLAANVLASSSYDLTVRIWDLQAGADRLKLQGHQDQIFSLAWSPDGQQLATVCKDGRVRVYRPRSGPEPLQEGPGPKGGRGARIVWVCDGRCLLVSGFDSQSERQLLLYEAEALAGGPLAVLGLDVAPSTLLPSYDPDTGLVLLTGKGDTRVFLYELLPESPFFLECNSFTSPDPHKGLVLLPKTECDVREVELMRCLRLRQSSLEPVAFRLPRVRKEFFQDDVFPDTAVIWEPVLSAEAWLQGANGQPWLLSLQPPDMSPVSQAPREAPARRAPSSAQYLEEKSDQQKKEELLNAMVAKLGNREDPLPQDSFEGVDEDEWD
For B1, the Kd amounted to 37.4 µM in assay [1], 9.9 µM in assay [2] and 9.9 µM in assay [3].

B2: human Coro7 β1β2 (domain or fragment)
chain: MNRFRVSKFRHTEARPPRRESWISDIRAGTAPSCRNHIKSSCSLIAFNSDRPGVLGIVPLQGQGEDKRRVAHLGCHSDLVTDLDFSPFDDFLLATGSADRTVKLWRLPGPGQALPSAPGVVLGPEDLPVEVLQFHPTSDGILVSAAGTTVKVWDAAKQQPLTELAAHGDLVQSAVWSRDGALVGTACKDKQLRIFDPRTKPRASQSTQAHENSRDSRLAWMGTWEHLVSTGFNQMREREVKLWDTRFFSSALASLTLDTSLGCLVPLLDPDSGLLVLAGKGERQLYCYEVVPQQPALSPVTQCVLESVLRGAALVPRQALAVMSCEVLRVLQLSDTAIVPIGYHVPRKAVEFHEDLFPDTAGCVPATDPHSWWAGDNQQVQKVSLNPACRPHPSFTSCLVPPAEPLPDTAQPAVMETPVGDADASEGFSSPPSSLTSPSTPSSLGPSLSSTSGIGTSPSLRSLQSLLGPSSKFRHAQGTVLHRDSHITNLKGLNLTTPGESDGFCANKLRVAVPLLSSGGQVAVLELRKPGRLPDTALPTLQNGAAVTDLAWDPFDPHRLAVAGEDARIRLWRVPAEGLEEVLTTPETVLTGHTEKICSLRFHPLAANVLASSSYDLTVRIWDLQAGADRLKLQGHQDQIFSLAWSPDGQQLATVCKDGRVRVYRPRSGPEPLQEGPGPKGGRGARIVWVCDGRCLLVSGFDSQSERQLLLYEAEALAGGPLAVLGLDVAPSTLLPSYDPDTGLVLLTGKGDTRVFLYELLPESPFFLECNSFTSPDPHKGLVLLPKTECDVREVELMRCLRLRQSSLEPVAFRLPRVRKEFFQDDVFPDTAVIWEPVLSAEAWLQGANGQPWLLSLQPPDMS
As to B2, the affinity in assay [2], expressed as Kd, was 5.2 µM.

B3: human Coro7 β2 (domain or fragment)
chain: KFRHAQGTVLHRDSHITNLKGLNLTTPGESDGFCANKLRVAVPLLSSGGQVAVLELRKPGRLPDTALPTLQNGAAVTDLAWDPFDPHRLAVAGEDARIRLWRVPAEGLEEVLTTPETVLTGHTEKICSLRFHPLAANVLASSSYDLTVRIWDLQAGADRLKLQGHQDQIFSLAWSPDGQQLATVCKDGRVRVYRPRSGPEPLQEGPGPKGGRGARIVWVCDGRCLLVSGFDSQSERQLLLYEAEALAGGPLAVLGLDVAPSTLLPSYDPDTGLVLLTGKGDTRVFLYELLPESPFFLECNSFTSPDPHKGLVLLPKTECDVREVELMRCLRLRQSSLEPVAFRLPRVRKEFFQDDVFPDTAVIWEPVLSAEAWLQGANGQPWLLSLQPPDMS
As to B3, the Kd in assay [2] was 11 µM.
With SDQQKKEELLNAMVAKLGNREDPLPQDSFEGVDEDEWD (domain or fragment) [human Coro7 CA (C-terminal Central-Acidic region of coronin 7)], the Kd is 1.9 µM in assay [4] and 0.9 µM in assay [5].

B4: human Coro7 β1 (domain or fragment)
chain: MNRFRVSKFRHTEARPPRRESWISDIRAGTAPSCRNHIKSSCSLIAFNSDRPGVLGIVPLQGQGEDKRRVAHLGCHSDLVTDLDFSPFDDFLLATGSADRTVKLWRLPGPGQALPSAPGVVLGPEDLPVEVLQFHPTSDGILVSAAGTTVKVWDAAKQQPLTELAAHGDLVQSAVWSRDGALVGTACKDKQLRIFDPRTKPRASQSTQAHENSRDSRLAWMGTWEHLVSTGFNQMREREVKLWDTRFFSSALASLTLDTSLGCLVPLLDPDSGLLVLAGKGERQLYCYEVVPQQPALSPVTQCVLESVLRGAALVPRQALAVMSCEVLRVLQLSDTAIVPIGYHVPRKAVEFHEDLFPDTAGCVPATDPHSWWAGDNQQVQKVSLNPACRPHPSFTSCLV
For B4, in assay [2], the Kd stood at 5.5 µM.
